target: HIV-1 NL4-3 Env on infected cells (HIV-1 group M subtype B, NL4-3 (pNL4-3 …, strain))

| Binder | binding result |
| --- | --- |
| c5300 (antibody, V domains shown) VH: QMQLQESGPGLVKPSETLTVTCYVSGGSISRYHWAWIRQSAGKPLEWIGSVYGNSGSVRSSPSLHTRVALVIGSTYFSLKLKSATAADTAVYYCARELARDFNYDFGHGGSSFGIDVWGRGIMVTVSS VL: NFILTQPHSVSGSPGKTVIISCTRSSGNIGDNSVQWYQHRPGTSPTTVISEKNRRPSGIPGRFSASIDTSSNSASLTISDLRSEDEAVYYCQSCDGGNRLIFGGGTTLTVL | binds |
| c5229 (antibody, V domains shown) VH: QMQLQESGPRLVKPSETLTVTCSVSGGSMSHFHWSWIRQSAGKGLEWIGSVYGNSGSVRSNPSLHTRVAFSLGRGQISLNLKWATAADTAVYYCARELARDFDYNFGHGGSSFGIEVWGRGTLVTVSS VL: NFILTQPHSVSGSPGKTVIISCTRSSGNIGDNSVQWYQQRPGTPPRTVISEKNKRPSGVPDRFSASIDTSSNSASLTISGLTTEDEADYYCQSCDSGNRLIFGGGTTLTVL | binds |
| c26986 (antibody, V domains shown) VH: QVHLVQSGAEVKKPGSSVKVSCKASGGSFNTNFITWVRQAPGQGLEWMGRIMPMFGTRNLAQRFQGRVTLSADTSSNSVYMELSSLTFGDTAVYFCAREAPAGGLDIWGQGTLVTVSS VL: QIVLTQSPGTLSLSPGERATLSCRASQSLSSNYLAWYQQKPGQAPRLLIYGASSRATGIPDRFSGSGSGTDFTLTISRLEPEDFAVYYCQQYSTLFSFGPGTRVDIK | binds |
| c5266 (antibody, V domains shown) VH: QVRLQESGPGLVKPSETLSLTCSVSGASVTAYSWSWVRLSAERGLEWIGRILPTIGSNRSNPSLHMRVGMSADTSKNLLSLRLTSVTAADTATYFCARDLVRDYDSWGGDYSTFHGIDVWGQGITVTVSL VL: NSLLTQPPSVSESPGKTVNISCTRTSGGITWDFVQWYQQRPGRAPAIVIYANDRRPSGVPDRFAGSIDSSSNSAALIISGLITEDEADYYCQSFHPRGHVVFGGGTKLTVL | binds |
| c31993 (antibody, V domains shown) VH: EVQLVQSGAEVKKPGESLKISCKCSGYTFSDHWIGWVRQRPEKGLEWMGIIFPDDSETRYSPSFEGQVTFSVDTASSTAYLLWNSLKPSDTATYYCARQESDEVRGARYDIWGQGTVVAVSS VL: QSVLTQPPSVSGTPGQRVTISCSGSTSNVENNYVFWYQQLPGKAPELLIDGSNQRPSGVPDRFSGSKSGISASLAISGLRSEDEAYYYCAAWDESFVYLFGGGTKLTVL | binds |
| c31461 (antibody, V domains shown) VH: QLQLQESGPGLVKPSETLSLTCSASGVSIGGGSSFLGWIRQPPGMGLEWIVTHYSAAKIYYNPSLQSRVITSLDTSKTQFSLKLTSMTATDTAIYYCARGNWQLQAFDSWGQGILVTVSS VL: DIQMTQSPSTLSASVGDRVTITCRASQDIRSWLAWYQQKPGEAPKLLIYTASRLHSGVPSRFSGSGSGTEFTLTISSLQPDDFATYYCQQHNSYSGTFGQGTKVEIK | binds |
| c22681 (antibody, V domains shown) VH: QIRLVESGGALVKPGGSLRLSCTASGFPFGHYYLSWVRQGPGRGLEWVAHISARSTTIVYADSVRGRFTISRDNDKRSLYLEMNDLRVDDTAMYYCARDSFKWTWEYFDAWGQGTRVSVSS VL: QSVLTQPPSVSGAPGQTVAISCSGSTSNIGHNPVSWYRNVPGTAPRIIIFSDSQRPSGIPGRFSGSKSGTSASLVITDLQLEDEGDYYCAAWGGSLRGALFGGGTKVTVL | binds |
| c24118 (antibody, V domains shown) VH: EVRLVESGGSLVQPGGSLRLSCSASGFSFSKSAMSWVRQAPGKELEWVAAISGSGNSHHISDAVRGRFSISRDNLGDSVFLQMYNLRVDDTAKYFCAKSEGGRSGWYYWATEYFQHWGQGAVVTVAS VL: SSELTQPPSVSVSPGQTARISCSGHALPQRYATWYRQKPGQAPILIIFGNNERPSGIPARFFVSASGKTAILTITGVQAEDEGDYICQSSDGSHTSLVFGGGTKLTVL | binds |
| c24103 (antibody, V domains shown) VH: EVRLAQSGGGLVQPGGSLRLSCSASGFSFSKSAMSWVRQAPGKELQWVAAISGSGNSQHISDAVRGRLSISRDNLDDSVFLHMNNLRVEDTAKYFCAKSEGGRSGWYYWATEYFQHWGQGAVVTVAS VL: SSELTQPPSVSVSPGQTARISCSGHALPQRYATWYRQKPGQAPILIVFGNNERPSGIPARFSVSASGKTAMLTITGVQAEDEGDYICQSSDGSHTSLVFGGGTKLTVL | binds |
| c11475 (antibody, V domains shown) VH: EARLVESGGGRVQPGGSLRLSCEASGFRFSSYTFNWVRQSPGKGLEWLAKISASPFGRSQVNYAHSVEGRFIISRDNDGNSLRLQMNDLRGGDSGVYYCARAPWQERNLDYNYAMDVWGQGTTVIVSS VL: ELVLTQSPGTLSLSPGERATVSCRASQSLRRDSLAWYQQKPGHSPRLLIFAASNRVPGIPYRFSGTGSGTQFTLTIEKMEPEDFAVYYCQSYGSSPLYTFGQGTKLDIN | binds |
| c10895 (antibody, V domains shown) VH: QEQGIESVRAAVESGASLIISCPTSGFDFARYTMHWVRQAPGKGLEWVAVTSSQGEKKYYSEAVKGRFVITRNNFKRTLYLEMSSLKPEDAGVYYCARSQGYCGTYACYGYYYYMDVWVKGPTVIVSS VL: QSVLTQPPSVSAAPGEKVAISCSGNTTNIEKNYVAWYQHVPETAPKLLIFENHKRPFGIPDRFSGSKSATSATLGISDLQTADEADYYCQTWDTKLHIWVFGGGTKLTVL | binds |
| c5272 (antibody, V domains shown) VH: EVRLQESGPELVKPSGTLSLTCTIYGESIFPYFYSWIRQTAGGGLQWIGRLYSSTGSSKSNPSIHLRVALSVDRDRNQVGLRMTSMSLADTGVYYCVRDVMRGYDSFDGSSGIYGGVDIWGRGTTVTVSS VL: QFLLTQPHSVSESPGKTITISCTRSSGTFASKSVLWFSQRPGSRPTNVIFETNRRAAGVPDRFSGSVDSSSSSATLTISGLRTEDEGDYYCQSYDGGNHVVFGGGTKVTVL | binds |
| c5373 (antibody, V domains shown) VH: QVRLQESAPRVVKPSESLSLTCTVSGGSIFPFFYSWIRQAPGGGLQWIGRLYSNTGSSKSNPSLHLRVALSVDRSRNQVGLKMTSMTAADTGVYYCVRDIMREFDDFNGAGGVYGGVDIWGRGTAVTVSS VL: QFVLTQPPSVSESPGKTISISCTRSSGTFARNSVHWYLQRPGSVPKTVIYDGNRRPSGIPGRFSASIDVSSGSASLTISGLTTEDEAEYYCQSFDGGNHVVFGGGTKVTVL | binds |
| c5337 (antibody, V domains shown) VH: QVRLQESAPRLVKPSETLSLTCTVSGGSIFPFFYSWIRQAPGGGLQWIGRLYSNTGSSKSNPSLHLRVALSVDRSRNQVGLKMTSMTAADTGVYYCVRDIMRDFDDFNGAGGVYGGVDIWGRGTAVTVSS VL: QFVLTQPPSVSESPGKTISISCTRSSGTFARNSVHWYLQRPGSVPKTVIYDGNRRPSGIPGRFSASIDVSSGSASLTISGLTPEDEAEYYCQSYDGGNHVVFGGGTKVTVL | binds |
| c27236 (antibody, V domains shown) VH: QVQLVQSGAEVKTPGSSVKVACKTSGGPFSSYAISWIRQAPGEGLEWMGGVTPLFGTARYTQKFQGRLTITTDESTSTTYMSLSGLKSEDTAVYYCASLAYIGSGPKWGQGALVTVSS VL: DIQMTQSPSAMSASVGERVTITCRASQGISSDLAWFQQKPGKVPERLIYAASNLQSGVPSRFSGSGSGTQFTLTISGLQAEDSATYYCLQHDSYPWTFGQGTKVEIK | binds |
| c10840 (antibody, V domains shown) V domain 1: EVRLDQSGAEMRKPGTSVRLSCTVSGHTTSDFFIHWVKQAPQRGPQWMGLINVEDENVIYAEVFQGRISIVADTSKTTVFLDLSHLTFEDTALYFCTTHTLEKETGDYVAAFDSWGQGTFLSVSS V domain 2: QSVLTQPPSVSAVPGQKVIISCSGRTSNIGTNFVSWYQQFPGAAPKLLIYDTFHRPSGISDRFSASKSDTSATLAITALQPGDEAEYYCGAWDSGLNPAVFVFGSGTRVFVL | binds |
| c21079 (antibody, V domains shown) VH: EVQLVQSGGGEARPGDSLRISCAVSGFQFNQYAMSWVRQRPGKGLEWVSSADWTGNSVHYAGSLGDRFSVSRALYGHSLELQMNSLRPEDTAVYYCARQDFYASESRAFSEIHGNFFDLWGQGTRVTVSP VL: QSALTQPPSASGSPGQSVIISCTGASSDISGHEYVSWYQQHAAKVPKLIIYEVTKRPSGVPDRFIGSRSGNTASLTISGLQADDEADYYCASYRHNDRSYVFGTGTTVAVL | binds |
| c29260 (antibody, V domains shown) VH: QVRLQESGPGLVRPSETLSLTCLVSGDSITSNYWSWIRQPPGKTLEWIGFMYNSGDANYNPSLQSRVSISADTANNQFALRLTSVTAADTAVYYCARHPSRGSNYDSVTGDTYYYYYGIDVWGPGKAVAVSS VL: DIQMTQSTPSLSASLGDKITISCQASRDIDTSLNWYQQKPGKSPKLLVVAASTLETGVPSRFSASGSGTHFTLTINDLQRDDVATYFCQQYAALPLTFGGGTRVDLR | binds |
| c27003 (antibody, V domains shown) VH: QFQLVQSGAEVRSPGSSVTVSCKASGSTFHTYVLSWVRQAPGQGLEWMGGIIPIFATPKYAQKFQGRVTFTADEGTSTAYMDLRSLRPEDTAVYYCARSATGGTALVDYGDYEGDTFYHNHMDVWGAGTTVTVSS VL: QSVLTQPPSASATPGQRVTISCSGRTSNVGSYAVSWYQQLPGTAPKLVIYSDDRRPSGVPDRFSGSKSGTSASLAISGLQSEDEADFYCAAWDDSLKTPVFGGGTKLTVL | binds |
| c24356 (antibody, V domains shown) VH: QVQVVQSGAEVKQPGASVSVSCKVLGYTLSELSMHWVRQSPAKGLEWMAGFDPDANKEIYAQEFQGRVTLTHHFDTDTYFLELTSLRSDDTAVYYCATGERLAGNFLDWLHNFDYWGQGTLVTVSA VL: EIVLTQSPATLSLSPGERATLSCRASQSIGNYLAWYQQRPGQAPRLLIHSTSNRATGIPVRFTGSGSGTDFTLTISSLEAEDFAVYYCQHRVNWPPGYTFGQGTKLDIK | binds |
| c5331 (antibody, V domains shown) VH: HVHLQESGPGLVKPSETLSVTCQVSGSPLSRYFWSWIRQPAGGGLEWIGRHYPSSGSNTASAALHTRITMSMDFRNNRLSLTLRSVTAADTAVYYCTRDVMRDFNDVNGSGGTFRGVEFWGRGTTVTVSS VL: SFILTQPHAVSESPGKTVTISCTRSSGSIDTAYVHWYQQRPGRPPTTLIYDANQRPSGVPDRFSASVDSSSSSASLTISGLEAEDEAIYYCQSSDSGHRVVFGGGTELTVL | binds |
